Tests used:
[1] = system: recombinant human GFAP with C-terminal tag (DDK)
Sequence of recombinant human GFAP with C-terminal tag (DDK) (chain, as listed by the source): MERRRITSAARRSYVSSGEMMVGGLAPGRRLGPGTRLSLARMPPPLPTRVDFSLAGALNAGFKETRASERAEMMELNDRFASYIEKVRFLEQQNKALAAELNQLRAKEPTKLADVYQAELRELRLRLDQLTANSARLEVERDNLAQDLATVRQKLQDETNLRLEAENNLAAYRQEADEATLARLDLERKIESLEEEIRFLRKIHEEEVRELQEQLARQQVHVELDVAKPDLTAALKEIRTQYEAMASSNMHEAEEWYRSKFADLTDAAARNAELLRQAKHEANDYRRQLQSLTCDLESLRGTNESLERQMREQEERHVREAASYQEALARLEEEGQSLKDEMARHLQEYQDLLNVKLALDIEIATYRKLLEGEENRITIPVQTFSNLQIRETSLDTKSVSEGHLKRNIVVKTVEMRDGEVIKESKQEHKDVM

Sequence of calpain-2 (P17655 20-700): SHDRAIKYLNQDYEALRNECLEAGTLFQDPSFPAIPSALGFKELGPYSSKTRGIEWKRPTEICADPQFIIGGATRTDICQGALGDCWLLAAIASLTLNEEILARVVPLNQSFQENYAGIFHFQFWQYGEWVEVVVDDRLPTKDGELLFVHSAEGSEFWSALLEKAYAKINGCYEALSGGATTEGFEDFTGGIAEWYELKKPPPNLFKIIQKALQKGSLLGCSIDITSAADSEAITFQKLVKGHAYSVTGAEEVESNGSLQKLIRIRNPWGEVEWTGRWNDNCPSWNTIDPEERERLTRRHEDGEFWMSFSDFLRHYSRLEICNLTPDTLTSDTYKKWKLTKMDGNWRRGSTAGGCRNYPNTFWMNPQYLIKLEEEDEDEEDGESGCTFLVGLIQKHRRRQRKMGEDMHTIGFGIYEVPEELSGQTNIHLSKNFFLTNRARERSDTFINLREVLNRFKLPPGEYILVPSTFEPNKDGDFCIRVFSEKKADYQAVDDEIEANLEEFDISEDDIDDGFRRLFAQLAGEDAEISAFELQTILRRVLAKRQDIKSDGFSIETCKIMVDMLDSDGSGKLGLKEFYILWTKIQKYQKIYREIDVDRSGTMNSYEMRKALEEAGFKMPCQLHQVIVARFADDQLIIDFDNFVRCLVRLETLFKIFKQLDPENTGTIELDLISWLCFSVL
Sequence of rat Tau (intact protein) (chain, as listed by the source): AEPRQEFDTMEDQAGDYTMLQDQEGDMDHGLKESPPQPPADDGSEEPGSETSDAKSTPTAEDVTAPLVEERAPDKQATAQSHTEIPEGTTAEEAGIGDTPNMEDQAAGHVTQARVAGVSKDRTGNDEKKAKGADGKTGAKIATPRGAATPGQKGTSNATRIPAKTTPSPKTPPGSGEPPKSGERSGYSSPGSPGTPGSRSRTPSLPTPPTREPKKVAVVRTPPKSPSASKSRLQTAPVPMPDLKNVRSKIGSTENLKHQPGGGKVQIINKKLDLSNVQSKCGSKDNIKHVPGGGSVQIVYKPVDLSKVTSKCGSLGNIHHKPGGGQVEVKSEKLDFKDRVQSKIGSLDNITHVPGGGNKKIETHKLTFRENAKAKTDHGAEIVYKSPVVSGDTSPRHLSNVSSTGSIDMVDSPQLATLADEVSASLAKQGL
Sequence of calpain-1 (P07384 2-714): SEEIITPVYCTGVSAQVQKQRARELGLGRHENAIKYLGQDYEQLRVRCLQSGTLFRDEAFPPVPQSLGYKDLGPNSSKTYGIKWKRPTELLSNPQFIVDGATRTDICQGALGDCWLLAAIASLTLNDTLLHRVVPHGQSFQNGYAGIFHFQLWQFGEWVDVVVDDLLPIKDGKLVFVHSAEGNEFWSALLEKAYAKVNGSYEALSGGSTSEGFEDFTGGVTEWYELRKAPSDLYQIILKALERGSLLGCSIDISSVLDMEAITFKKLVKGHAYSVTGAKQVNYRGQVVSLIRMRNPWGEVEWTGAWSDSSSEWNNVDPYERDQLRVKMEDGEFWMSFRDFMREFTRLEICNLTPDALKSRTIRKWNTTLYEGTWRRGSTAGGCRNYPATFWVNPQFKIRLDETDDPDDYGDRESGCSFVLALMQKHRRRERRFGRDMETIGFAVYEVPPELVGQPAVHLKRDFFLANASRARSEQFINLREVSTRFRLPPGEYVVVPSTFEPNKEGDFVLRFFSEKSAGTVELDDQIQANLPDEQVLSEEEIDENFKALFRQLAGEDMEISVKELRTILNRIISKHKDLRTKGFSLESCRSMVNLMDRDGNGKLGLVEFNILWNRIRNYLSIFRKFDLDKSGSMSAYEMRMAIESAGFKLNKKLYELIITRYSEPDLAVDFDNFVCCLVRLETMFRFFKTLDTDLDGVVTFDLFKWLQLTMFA

Row | Substance | proteolytic cleavage sites (human Tau) | proteolytic digestion, western blot with anti-total tau antibody (human Tau) | proteolytic cleavage; N-terminal sequencing of fragments (rat Tau (intact protein)) | proteolytic digestion, western blot of fragments (rat Tau (intact protein)) | proteolytic cleavage (Coomassie, anti-DDK and anti-GFAP western blot) [1] | proteolytic cleavage; N-terminal sequencing of excised GBDP bands [1]
1 | caspase-3 | Caspase cleavage sites in human Tau are Asp25 (GDRKD*25QGGYTMHQD (SEQ ID NO: 17)) ... and Asp421 (SSTGSIDMVD*421SPQLATLA (SEQ ID NO: 18)) | Treatment of human tau with calpain or caspase produce numerous breakdown products | Caspase-3 cleaves rat Tau at Asp412 (SSTGSIDMVD*412SPQLATLA (SEQ ID NO: 10)) | caspase-3 digestion only produces limited fragment doublet of 48 kDa/45/kDa | illustrates successful cleavage by both calpain and caspase | –
2 | calpain-1 | – | – | – | Both calpain-1 and -2 digest tau into several immunoreactive fragments (42 kDa, 35 kDa and 15 kDa) | – | –
3 | calpain-2 | – | Treatment of human tau with calpain or caspase produce numerous breakdown products | – | Both calpain-1 and -2 digest tau into several immunoreactive fragments (42 kDa, 35 kDa and 15 kDa) | – | cleavage by calpain 2 at Asn59 (GALN*59AGFKETRASERAE) ... and Thr383 (TIPVQT*383FSNLQIRET) ... overall producing multiple GBDPs between 49 and 38 kDa in recombinant human GFAP
4 | calpain (calpain 2 or calpain 1) | Human TBDPs are produced from Human Tau by calpain cleavage at Ser129 ... Val229 ... Gly157 ... Lys44 ... and Arg379 | – | Calpain cleaves rat tau at Lys43 ... Ser120 ... Val220 ... and Arg370 | – | – | –

Source: patent US20170242041
